# According to US12214021B2 (CHINA AGRICULTURAL UNIVERSITY, priority 2018, dated 2025):
# Marks after values point to notes of the source that are not given here.
# B1: lactoferrin (protein, UniProt P02788 20-710, looked up)
# Lactotransferrin: GRRRSVQWCAVSQPEATKCFQWQRNMRKVRGPPVSCIKRDSPIQCIQAIAENRADAVTLDGGFIYEAGLAPYKLRPVAAEVYGTERQPRTHYYAVAVVKKGGSFQLNELQGLKSCHTGLRRTAGWNVPIGTLRPFLNWTGPPEPIEAAVARFFSASCVPGADKGQFPNLCRLCAGTGENKCAFSSQEPYFSYSGAFKCLRDGAGDVAFIRESTVFEDLSDEAERDEYELLCPDNTRKPVDKFKDCHLARVPSHAVVARSVNGKEDAIWNLLRQAQEKFGKDKSPKFQLFGSPSGQKDLLFKDSAIGFSRVPPRIDSGLYLGSGYFTAIQNLRKSEEEVAARRARVVWCAVGEQELRKCNQWSGLSEGSVTCSSASTTEDCIALVLKGEADAMSLDGGYVYTAGKCGLVPVLAENYKSQQSSDPDPNCVDRPVEGYLAVAVVRRSDTSLTWNSVKGKKSCHTAVDRTAGWNIPMGLLFNQTGSCKFDEYFSQSCAPGSDPRSNLCALCIGDEQGENKCVPNSNERYYGYTGAFRCLAENAGDVAFVKDVTVLQNTDGNNNEAWAKDLKLADFALLCLDGKRKPVTEARSCHLAMAPNHAVVSRMDKVERLKQVLLHQQAKFGRNGSDCPDKFCLFQSETKNLLFNDNTECLARLHGKTTYEKYLGPQYVAGITNLKKCSTSPLLEACEFLRK
# notes: natural glycoprotein with a molecular weight of 78 KDa in milk
# What was measured:
# [1] = system: VDR; test: expression of VDR gene (mRNA) in MC3T3-E1 cells under LF stimulation; type: cell-based; conditions: FIG. 1
# [2] = system: VDR; test: VDR protein expression in cytoplasm and nucleus of osteoblasts after LF for different times; type: cell-based
# Procedure: After verifying that LF promotes high expression of VDR at the transcription level, it is further verified at the protein level. VDR exists in the cytoplasm and nucleus, but plays a major role in the nucleus. The inventors stimulated osteoblasts for different times using LF to measure the expression of VDR in the cytoplasm and nucleus. […] In the nucleus, VDR expression began to increase at 1 hour after LF treatment, and reaches the maximum at 2-6 h.
# [3] = system: osteoblasts; test: proliferation of osteoblasts promoted by LF (MTT method); type: cell-based; conditions: FIG. 4
# Procedure: Based on transcriptome data, the inventors verified that LF can promote the high expression of VDR at both the gene and protein levels. In order to confirm the role of this pathway in the promotion of osteoblast proliferation and differentiation by LF, the inventors first designed a VDR siRNA to achieve the purpose of transiently silencing VDR genes. The principle of siRNA is the post-transcriptional gene silencing mechanism that blocks the expression of corresponding gene. 20 μM VDR siRNA was added to osteoblasts, the proliferation rate of osteoblasts promoted by LF was detected by MTT method, and the ALP activity of osteoblasts promoted by LF was detected by enzyme-linked immunoassay.
# The inventors first confirmed that LF promotes the proliferation and differentiation of osteoblasts through the regulation of the VDR pathway using the osteoblast model. Since the osteogenic effect of VDR is mainly achieved by vitamin D, in order to simulate the normal physiological environment, the inventors treated osteoblasts with both 1 nM of […] (the active form of vitamin D) and LF, and then studied the proliferation and differentiation of osteoblasts.
# [4] = blood biochemical markers in mice after oral LF; type: in vivo; conditions: for 25-OH VD3 / Ca / P / PTH: blood, Mean ± SD, n = 8
# From the text: Generally, the content of VD is reflected by measuring the content of 25-OH D3 in the serum. […] The contents of calcium and phosphorus in serum reflect the degree of absorption of calcium and phosphorus in the small intestine. […] However, oral administration of LF still has no effect on serum calcium and phosphorus content.
# [5] = contents of calcium and phosphorus in urine of mice; type: in vivo; conditions: LF1000 group
# Procedure: In order to reflect the reabsorption of calcium and phosphorus by the kidney, the contents of calcium and phosphorus in urine were measured. In the VD-deficient groups, the calcium content in the LF1000 group is reduced by 67% compared with the control group, and the phosphorus content in the LF1000 group is reduced by 72% compared with the control group; in the VD-normal groups, the calcium content in the LF1000 group is reduced by 80% compared with the control group, and the phosphorus content in the LF1000 group is reduced by 78% compared with the control group.
# [6] = bone mineral density of the femur of mice; type: in vivo
# From the text: The factors affecting bone mineral density mainly include bone mass factors and bone quality factors. Decreased bone mass is an important factor in the occurrence of common bone diseases, and bone mineral density (BMD) is an important indicator for quantifying bone mass in bone mineral metabolism. The BMD index is of great significance for the prediction of fracture risk, the early diagnosis of osteoporosis and the evaluation of intervention measures.
# [7] = micro-CT microstructure of trabecular bone of distal femur of mice; type: in vivo; conditions: for BV/TV / TPF / Tb · N / Tb · Sp / Tb · Th: femoral ROI, Mean ± SD, n = 8
# From the text: According to the micro-building theory, the strength of the trabecular bone depends not only on the BMD, but also on its three-dimensional structure. In pathology, bone damage should include both “quantitative” change and “qualitative” changes. Quantitative change is the decline of BMD, while qualitative change is the change of the microstructure of trabecular bone, such as trabecular number and thickness, trabecular connection, and so on. Trabecular bone plays a major role in the microstructure. Increasing the cross structure of each trabecular bone can increase the supporting strength of the bone, but has basically no effect on bone mineral density.
# The distal femur is considered a sensitive site for detecting bone health due to high cancellous bone content and rapid bone turnover. Therefore, the inventors analyzed the microstructure of trabecular bone of the distal femur using micro-CT. […] Therefore, this study mainly analyzed the microstructure of the cancellous trabecular bone of the femur in each group. The three-dimensional structure image of the trabecular bone of the ROI region of the mouse femur obtained by micro-CT reconstruction is shown in FIG. 7A and the longitudinal section is shown in FIG. 7B.
# In order to quantitatively analyze the structure of the trabecular bone, the spatial structure parameters of the trabecular bone of the ROI region shown in FIG. 7 were also measured. Trabecular bone structure parameters include the followings: Bone Volume Fraction (BV/TV), which is the ratio of the total volume of voxels representing the bone structure in the ROI to the total volume of all voxels in the region, and when the bone is unhealthy, the trabecular bone is lost and the BV/TV value decreases; trabecular thickness (Tb·Th), which is the average thickness of trabecular bone, and when the bone is unhealthy, the value of Tb·Th decreases, and in porous materials, Tb·Th can be understood as thickness of the pore wall; trabecular number (Tb·N), which is the number of intersections of bone tissue and non-bone tissue within a given length, and when the bone is unhealthy, the value of Tb·N decreases; trabecular separation (Tb·Sp), which is the average width of the medullary cavity between the trabecular bones. An increase in Tb·Sp indicates an increased bone resorption and possible bone loss. Tb. Sp can be understood as porosity. The trabecular pattern factor is used to evaluate the morphology of the trabecular bone. This parameter is determined by the surface area and volume of the trabecular bone, and is a parameter obtained through 3D simulation. The smaller the TPF value, the better the connectivity between trabecular bones. BV/TV, Tb·Th, Tb·N, and Tb·Sp are parameters that can be provided by both micro-CT and bone tissue morphometry. The TPF value is a parameter based on the analysis of the three-dimensional structure of the trabecular bone, can be obtained from micro-CT analysis, but cannot be provided by the traditional two-dimensional method.
# [8] = system: VDR; test: immunohistochemistry of VDR expression in mouse kidney, colon and bone tissue; type: in vivo, mice; conditions: for VDR-positive cell rate in the kidney: FIG. 9; for VDR positive cell rate in the colon (positive cells to total cells in each crypt): FIG. 11
# From the text: The immunohistochemical technique was used to detect the expression of VDR in kidney tissues.
# [9] = system: VDR; test: Western blot detection of VDR expression in kidney, colon and bone tissue; type: in vivo, mice
# From the text: The inventors further verified the expression of VDR in three major tissues, kidney, colon and bone using the Western blot method by extracting the tissue protein.
# [10] = system: VDR; test: effect of inhibition of endocytosis (hypertonic, 4° C.) on VDR expression promoted by LF in MC3T3-E1 cells; type: cell-based; conditions: under the condition of inhibiting endocytosis (hypertonic, 4° C.), FIG. 18
# Procedure: Studies have shown that LF can directly enter the cell and bind with DNA to regulate cell gene expression. Therefore, in order to study the effect of endocytosis, cells were stimulated with LF under culture conditions that inhibit endocytosis, and the inhibitory effect on the endocytosis of LF were detected firstly. […] Then, the promotion effect of LF on VDR was measured to analyze whether the inhibition of endocytosis affected the expression of VDR promoted by LF to determine the site of action of LF.
# [11] = osteoblasts, after LF treatment
# [12] = VD-deficient LF100-administered group as printed (second such column, c3)
# [13] = VD-normal LF100-administered group as printed (second such column, c6)
# [14] = VD-normal oral-administered LF group
molecule,measurement,setting,value
B1,VDR expression at mRNA levels,[1],up to 30 fold
same,time after which VDR expression in the cytoplasm began to normalize,[2]; osteoblasts treated with LF,12 h
same,time at which VDR expression in the cytoplasm reaches the maximum,[2]; osteoblasts treated with LF,4 h
same,VDR expression in the cytoplasm,[2]; osteoblasts treated with LF for two hours,significantly increased
same,time at which VDR expression in the nucleus began to increase,[2]; [11],1 h
same,time at which VDR expression in the nucleus reaches the maximum,[2]; [11],2 to 6 h
same,"effect on promoting the proliferation and differentiation of osteoblasts, compared with 1.25(OH)2D3",[3],stronger effect
same,25-OH VD3,[4]; [12],14.8 ± 2.39^a ng/mL
same,Ca,[4]; [12],1.6 ± 0.13^a mmol/L
same,P,[4]; [12],2.33 ± 0.42^a mmol/L
same,PTH,[4]; [12],93.69 ± 34.61^b pg/mL
same,25-OH VD3,[4]; [13],27.61 ± 2.93^b ng/mL
same,Ca,[4]; [13],2.25 ± 0.17^b mmol/L
same,P,[4]; [13],2.26 ± 0.33^a mmol/L
same,PTH,[4]; [13],91.91 ± 13.10^b pg/mL
same,effect on PTH content,[4]; oral 1000 mg/kg BW LF in the VD-deficient group,reduce the PTH content
same,effect on serum calcium and phosphorus content,[4]; oral administration of LF,no effect
same,effect on the 25-OH D3 content in serum,[4]; oral administration of LF vs corresponding control groups,no significant effect
same,"calcium content in urine, reduction compared with the control group",[5]; VD-deficient groups,67%
same,"phosphorus content in urine, reduction compared with the control group",[5]; VD-deficient groups,72%
same,"calcium content in urine, reduction compared with the control group",[5]; VD-normal groups,80%
same,"phosphorus content in urine, reduction compared with the control group",[5]; VD-normal groups,78%
same,"bone mineral density of the femur, increase compared with the VD-deficient control group","[6]; VD-deficient LF100-administered group, 5 months oral, p<0.05",5.67%
same,effect on bone mineral density when VD is normal,"[6]; oral administration, VD normal",further promote bone mineral density
same,trabecular bones and cavity in longitudinal section compared with the control group,"[7]; VD-deficient LF-administered group, FIG. 7",obviously more trabecular bones and smaller cavity
same,BV/TV of the trabecular bone compared with the VD-deficient control group and the VD-normal control group,"[7]; VD-deficient groups, low-dose LF group",significantly higher
same,trabecular structure parameters compared with the control group,[7]; [14],"comparable to the control group, except for Tb·Th value"
same,BV/TV,[7]; [12],0.252 ± 0.029^b %
same,TPF,[7]; [12],7.290 ± 2.128^ab mm^−1
same,Tb · N,[7]; [12],5.374 ± 0.501^ab mm^−1
same,Tb · Sp,[7]; [12],0.136 ± 0.017^b mm
same,Tb · Th,[7]; [12],0.054 ± 0.005^ab mm
same,BV/TV,[7]; [13],0.28 ± 0.017^ab %
same,TPF,[7]; [13],5.599 ± 0.397^b mm^−1
same,Tb · N,[7]; [13],6.029 ± 0.586^a mm^−1
same,Tb · Sp,[7]; [13],0.141 ± 0.020^b mm
same,Tb · Th,[7]; [13],0.057 ± 0.004^ab mm
same,VDR-positive cell rate in the kidney,[8]; VD-deficient LF100-administered group,13.8%
same,VDR positive cell rate in the femur,"[8]; VD-deficient LF100-administered group, FIG. 13",75%
same,VDR-positive cell rate in the kidney,[8]; VD-deficient LF1000-administered group,17%
same,VDR positive cell rate in the colon (positive cells to total cells in each crypt),[8]; VD-deficient LF-administered group,more than 70%
same,VDR-positive cell rate in the kidney,[8]; VD-normal LF100-administered group,16.3%
same,VDR-positive cell rate in the kidney,[8]; VD-normal LF1000-administered group,16.5%
same,VDR positive cell rate in the colon (positive cells to total cells in each crypt),[8]; [14],~80%
same,VDR expression in the colon,[9]; FIG. 15,effectively promote the expression of VDR
same,"VDR expression in the femur, higher than that of the control group","[9]; VD deficiency, LF1000-administered group, FIG. 16",3 times
same,VDR expression in the kidney,"[9]; VD deficiency, oral lactoferrin, FIG. 14",effectively promote the expression of VDR
same,"VDR expression in the femur, higher than that of the VD normal control group","[9]; VD-normal oral-administered 100 mg LF/kg BW group, FIG. 16",2.35 times
same,promotion effect of LF on the expression of VDR in the cytoplasm and nucleus,[10],significantly inhibited
